Columns and labels:
Cynomolgus monkey C5 = Cynomolgus monkey C5 (cynomolgus monkey, UniProt A0A2K5U1T1 19-1676); assay: cell-based or functional assay
monkey C5-mmh [1] = target: T1, monkey C5-mmh (monkey, UniProt P01031 19-1676 (human entry), limits assumed); assay: SPR (Biacore), mAb captured, dissociation of monkey C5 at pH7.4 vs pH6.0, 37°C
T1 construct: recombinant, with C-terminal myc-myc-hexahistidine tag
T1 chain: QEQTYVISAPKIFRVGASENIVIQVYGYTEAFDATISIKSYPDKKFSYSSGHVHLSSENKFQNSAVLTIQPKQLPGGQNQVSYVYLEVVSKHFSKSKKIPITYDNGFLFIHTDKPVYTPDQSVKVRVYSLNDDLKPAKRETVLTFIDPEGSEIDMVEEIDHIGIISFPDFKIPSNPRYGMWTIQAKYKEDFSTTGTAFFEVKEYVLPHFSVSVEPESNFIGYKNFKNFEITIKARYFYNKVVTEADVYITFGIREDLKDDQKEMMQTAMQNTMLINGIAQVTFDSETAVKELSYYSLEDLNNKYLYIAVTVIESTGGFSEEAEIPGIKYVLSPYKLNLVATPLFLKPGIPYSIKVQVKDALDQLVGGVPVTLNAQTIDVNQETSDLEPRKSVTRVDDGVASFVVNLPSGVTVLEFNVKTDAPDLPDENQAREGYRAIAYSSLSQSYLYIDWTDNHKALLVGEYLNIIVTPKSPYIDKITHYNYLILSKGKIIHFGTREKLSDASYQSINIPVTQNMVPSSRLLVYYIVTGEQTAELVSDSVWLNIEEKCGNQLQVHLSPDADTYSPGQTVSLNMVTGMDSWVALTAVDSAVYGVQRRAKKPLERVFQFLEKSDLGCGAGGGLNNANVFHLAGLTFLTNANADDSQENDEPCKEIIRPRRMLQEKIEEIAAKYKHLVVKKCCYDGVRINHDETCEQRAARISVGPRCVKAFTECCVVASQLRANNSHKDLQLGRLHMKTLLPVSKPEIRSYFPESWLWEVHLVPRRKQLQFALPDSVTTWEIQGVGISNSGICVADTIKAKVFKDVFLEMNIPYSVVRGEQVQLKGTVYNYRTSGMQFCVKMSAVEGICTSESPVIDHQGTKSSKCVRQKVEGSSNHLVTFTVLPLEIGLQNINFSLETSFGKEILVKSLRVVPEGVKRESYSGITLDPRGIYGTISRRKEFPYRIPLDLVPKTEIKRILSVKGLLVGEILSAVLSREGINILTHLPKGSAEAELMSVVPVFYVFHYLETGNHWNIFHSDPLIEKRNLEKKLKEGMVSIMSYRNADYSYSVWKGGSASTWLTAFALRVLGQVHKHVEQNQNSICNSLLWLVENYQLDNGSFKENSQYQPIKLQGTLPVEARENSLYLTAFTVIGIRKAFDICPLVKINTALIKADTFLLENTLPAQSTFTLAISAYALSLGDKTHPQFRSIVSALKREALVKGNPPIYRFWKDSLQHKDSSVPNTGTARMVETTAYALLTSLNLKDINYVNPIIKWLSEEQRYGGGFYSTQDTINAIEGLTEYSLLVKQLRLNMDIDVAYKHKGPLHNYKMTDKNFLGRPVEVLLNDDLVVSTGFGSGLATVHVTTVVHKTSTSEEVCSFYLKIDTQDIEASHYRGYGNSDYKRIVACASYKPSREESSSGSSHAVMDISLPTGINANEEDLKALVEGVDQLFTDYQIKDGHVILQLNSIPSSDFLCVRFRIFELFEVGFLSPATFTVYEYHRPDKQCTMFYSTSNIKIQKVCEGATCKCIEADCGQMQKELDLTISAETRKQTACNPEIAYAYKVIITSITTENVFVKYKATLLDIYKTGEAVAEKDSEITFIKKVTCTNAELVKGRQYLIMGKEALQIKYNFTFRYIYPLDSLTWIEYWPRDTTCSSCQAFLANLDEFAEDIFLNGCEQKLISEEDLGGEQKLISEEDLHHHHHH

human C5 [2] = target: T2, human C5 (human, UniProt P01031 19-1676); assay: SPR (Biacore), mAb captured, dissociation of human C5 at pH7.4 vs pH6.0, 37°C
T2 construct: native C5 purified from plasma (EMD) in the Biacore and Octet assays, C5 of normal human serum in the CDC and hemolysis assays; two chains (alpha and beta); also called hC5; complement factor 5
Procedure: Effect of pH on the rate of dissociation of recombinant human C5 bound to purified anti-C5 monoclonal antibodies was determined using a real-time surface plasmon resonance biosensor using a Biacore T200 instrument. The Biacore sensor surface was first derivatized by amine coupling with a monoclonal mouse anti-human Fc antibody (GE, # BR-1008-39) to capture anti-C5 monoclonal antibodies expressed with human IgG4 Fc. All Biacore binding studies were performed using two running buffers PBS-T, pH7.4 (0.01M Na₂HPO₄/NaH₂PO₄, 0.15M NaCl, 0.05% v/v Tween-20, adjusted to pH7.4) and PBS-T, pH6.0 (0.01M Na₂HPO₄/NaH₂PO₄, 0.15M NaCl, 0.05% v/v Tween-20, adjusted to pH6.0). […] Binding dissociative half-lives (t %) were calculated from kd as: […]

human C5 [3] = target: T2, human C5; assay: cell-based or functional assay
African green monkey C5 [4] = target: T3, African green monkey C5 (African green monkey); assay: cell-based or functional assay
human C5 R885H-mmh [5] = target: human C5 R885H-mmh (human, UniProt P01031 19-1676); assay: cell-based or functional assay
African green monkey C5 [6] = target: T3, African green monkey C5; assay: cell-based or functional assay; remark: listed apart in the source
human C5 [7] = target: T2, human C5; assay: cell-based or functional assay; remark: listed apart in the source
human C5 R885C-mmh [8] = target: human C5 R885C-mmh (human, UniProt P01031 19-1676); assay: cell-based or functional assay
human C5 R885C-mmh [9] = target: T4, human C5 R885C-mmh (human, UniProt P01031 19-1676); assay: SPR, mAb captured via anti-hFc, 37C
T4 construct: also called human C5 variant R885C
In short: (§1)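 Antibodies captured on anti-human Fc surface in HBST (HEPES pH 7.4, 3 mM EDTA); C5 reagents (commercial human C5 or myc-myc-His-tagged variants) associated 3 min, dissociated 8 min, at 25 °C or 37 °C. Sensorgrams fitted 1:1; KD = kd/ka, t½ = ln2/(60×kd).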

monkey C5-mmh [10] = target: T5, monkey C5-mmh (monkey, UniProt P01031 19-1676 (human entry), limits assumed); assay: SPR, mAb captured via anti-hFc, 37C
T5 construct: Recombinant monkey C5 with a C-terminal myc-myc-hexahistidine tag
T5 chain: T1 chain
In short: as §1

human C5 R885H-mmh [11] = target: T6, human C5 R885H-mmh (human, UniProt P01031 19-1676); assay: SPR, mAb captured via anti-hFc, 37C
T6 construct: also called human C5 variant R885H
In short: as §1

human C5 [12] = target: T7, human C5 (human, UniProt P01031 19-1676); assay: SPR, mAb captured via anti-hFc, dissociation at pH7.4 vs pH6.0, 25C
T7 construct: Bought human C5 (EMD #204888, said elsewhere to be purified from plasma); also called hC5; complement component 5
In short: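 Anti-C5 mAbs (human IgG4 Fc) captured on an amine-coupled mouse anti-human Fc surface; recombinant C5 dissociation followed by Biacore T200 in PBS-T (0.01M phosphate, 0.15M NaCl, 0.05% Tween-20) at pH7.4 or pH6.0. Dissociative half-life (t½) calculated from kd.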

human C5 R885C-mmh [13] = target: T4, human C5 R885C-mmh; assay: SPR, mAb captured via anti-hFc, 25C
In short: as §1

human C5 R885H-mmh [14] = target: T6, human C5 R885H-mmh; assay: SPR, mAb captured via anti-hFc, 25C
In short: as §1

B1: H4H12161P (antibody, human IgG4, V domains shown)
VH: EVQLVESGGDLVQPGGSLRLSCAASGFTFSDHYMDWVRQAPGKGLDWIGRIRNKANAYNTEYAASVRGRFTISRDDSQNLLYLQMNSLKTDDTAVYYCVRVWNYAYFAMDVWGQGTTVTVSS
VL: DIQMTQSPSSLSASVGDRVTITCRSSQNIGIFLNWYQQKPGEAPNLLISAASSLHSGVPSRFSGSGSGTDFTLTIGSLQPEDFATYYCQQTYNTIFTFGPGTKVDIK
notes: H4H: human IgG4 Fc with S108P hinge mutation
With B1 the “Cyno AP % Max Inhibition, hemolysis assay, 5% serum” value (Cynomolgus monkey C5) was 98.4%, the “Cyno CP % Max Inhibition, hemolysis assay, 5% serum” value (Cynomolgus monkey C5) was 100% and the “Cyno Serum AP IC50, hemolysis assay, 5% serum” value (Cynomolgus monkey C5) was 7.8 nM. The “Cyno Serum CP IC50, hemolysis assay, 5% serum” value (Cynomolgus monkey C5) was 27.9 nM, the “t½ Ratio pH7.4/pH6.0” value (monkey C5-mmh [1]) was 10.7 and the “t½ Ratio pH7.4/pH6.0” value (human C5 [2]) was at most 0.7. For the same binder, the “Human AP % Max Inhibition, hemolysis assay, NHS” value (human C5 [3]) was 56.1%, the “Human AP IC50, hemolysis assay, NHS” value (human C5 [3]) was 25.5 nM and the “Human CP % Max Inhibition, hemolysis assay, NHS” value (human C5 [3]) was 93.7%. For the same binder, the “Human CP IC50, hemolysis assay, NHS” value (human C5 [3]) was 2.56 nM, the “AGM AP % Max Inhibition, hemolysis assay, 5% serum” value (African green monkey C5 [4]) was 35.7% and the “AGM CP % Max Inhibition, hemolysis assay, 5% serum” value (African green monkey C5 [4]) was 78.9%. The “AGM Serum AP IC50, hemolysis assay, 5% serum” value (African green monkey C5 [4]) was 47.5 nM, the “AGM Serum CP IC50, hemolysis assay, 5% serum” value (African green monkey C5 [4]) was 31.9 nM and the “IC50, inhibition of CDC of Daudi cells, C5 depleted human serum and 6.6 nM C5 Variant R885H” value (human C5 R885H-mmh [5]) was 1.8 nM. The “IC50, inhibition of CDC of Daudi cells, 1.66% African Green monkey serum” value (African green monkey C5 [6]) was 2.6 nM, the “IC50, inhibition of CDC of Daudi cells, 1.66% human serum” value (human C5 [7]) was 2.4 nM and the “IC50, inhibition of CDC of Daudi cells, C5 depleted human serum and 6.6 nM C5 Variant R885C” value (human C5 R885C-mmh [8]) was 1 nM.

B2: H4H11686N (antibody, V domains shown)
VH: QVQLVESGGGLVKPGGSLRLSCAASGFTFSDYYMSWIRQAPGKGLEWVSYISSSGNTIKYADSMKGRFTISRDNAKKSLFVEMNSLRAEDTAVYYCARYKSSSDYFDHWGQGTLVTVSS
VL: EIVLTQSPATLSLSPGERATLSCRASQSVRSYLAWYQQKPGQAPRLLIYDASNRATAIPARFSGSGSGTDFTLTISSLEPEDLAVYYCQQSGNWPLTFGGGTKVEIK
notes: also called H2M11686N
With B2 the “100 nM Human C5 R885C-mmh Bound (RU)” value (human C5 R885C-mmh [9]) was 69 RU, the Kd (human C5 R885C-mmh [9]) was 2.78 nM and the koff (human C5 R885C-mmh [9]) was 0.000791 s⁻¹. For the same binder, the kon (human C5 R885C-mmh [9]) was 284000 M⁻¹ s⁻¹, the t1/2 (human C5 R885C-mmh [9]) was 15 min and the “100 nM monkey C5-mmh Bound (RU)” value (monkey C5-mmh [10]) was 195 RU. It also gave a Kd (monkey C5-mmh [10]) of 8.88 nM, a koff (monkey C5-mmh [10]) of 0.00207 s⁻¹ and a kon (monkey C5-mmh [10]) of 233000 M⁻¹ s⁻¹. For the same binder, the t1/2 (monkey C5-mmh [10]) was 6 min, the “100 nM Human C5 R885H-mmh Bound (RU)” value (human C5 R885H-mmh [11]) was 74 RU and the Kd (human C5 R885H-mmh [11]) was 1.91 nM. It also gave a koff (human C5 R885H-mmh [11]) of 0.0008 s⁻¹, a kon (human C5 R885H-mmh [11]) of 419000 M⁻¹ s⁻¹ and a t1/2 (human C5 R885H-mmh [11]) of 14 min. The “t1/2 Ratio pH7.4/pH6.0” value (human C5 [12]) was 2, the “100 nM Human C5 R885C-mmh Bound (RU)” value (human C5 R885C-mmh [13]) was 253 RU and the Kd (human C5 R885C-mmh [13]) was 0.534 nM. It also gave a koff (human C5 R885C-mmh [13]) of 9.49e-05 s⁻¹, a kon (human C5 R885C-mmh [13]) of 178000 M⁻¹ s⁻¹ and a t1/2 (human C5 R885C-mmh [13]) of 122 min. For the same binder, the “100 nM Human C5 R885H-mmh Bound (RU)” value (human C5 R885H-mmh [14]) was 259 RU, the Kd (human C5 R885H-mmh [14]) was 0.491 nM and the koff (human C5 R885H-mmh [14]) was 0.000106 s⁻¹. For the same binder, the kon (human C5 R885H-mmh [14]) was 216000 M⁻¹ s⁻¹ and the t1/2 (human C5 R885H-mmh [14]) was 109 min.
